Series [1] addresses T1, MED25 ACID His474Glu (analyte) (human, UniProt Q71SY5 391-553, His474Glu).
T1 sequence (looked up): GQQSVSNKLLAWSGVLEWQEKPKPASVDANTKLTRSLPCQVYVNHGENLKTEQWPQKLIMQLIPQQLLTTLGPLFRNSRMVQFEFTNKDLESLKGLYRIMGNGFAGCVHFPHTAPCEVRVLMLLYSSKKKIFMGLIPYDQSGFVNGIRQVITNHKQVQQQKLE
The series can be described thus: BLI. Background: Biolayer interferometry detects binding as a change in optical thickness at a sensor tip.

For series [2], the target named is T2, MED25 ACID Lys518Ala/Lys519Ala/Lys520Ala (analyte) (human, UniProt Q71SY5 391-553, Lys518Ala | Lys519Ala | Lys520Ala).
T2 sequence (looked up): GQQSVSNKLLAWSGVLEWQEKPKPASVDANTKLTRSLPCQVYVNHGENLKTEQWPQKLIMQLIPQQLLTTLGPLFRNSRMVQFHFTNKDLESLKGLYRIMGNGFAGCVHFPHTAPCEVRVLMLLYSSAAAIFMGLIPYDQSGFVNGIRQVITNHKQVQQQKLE
As to the kind of experiment: BLI.

The target in series [3] is T3, MED25 ACID Gln430Glu (analyte) (human, UniProt Q71SY5 391-553, Gln430Glu).
T3 sequence (looked up): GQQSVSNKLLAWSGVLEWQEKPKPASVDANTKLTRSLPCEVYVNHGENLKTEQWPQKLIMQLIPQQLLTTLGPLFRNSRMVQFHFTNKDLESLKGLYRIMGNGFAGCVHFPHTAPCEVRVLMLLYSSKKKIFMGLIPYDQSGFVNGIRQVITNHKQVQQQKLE
The series can be described thus: BLI.

The target of series [4] is T4, MED25 ACID Tyr487Ser (analyte) (human, UniProt Q71SY5 391-553, Tyr487Ser).
T4 sequence (looked up): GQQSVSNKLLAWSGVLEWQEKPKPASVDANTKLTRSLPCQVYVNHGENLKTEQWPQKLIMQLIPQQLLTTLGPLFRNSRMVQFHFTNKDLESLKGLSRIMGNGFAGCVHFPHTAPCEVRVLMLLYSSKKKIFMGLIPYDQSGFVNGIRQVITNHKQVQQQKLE
As to the kind of experiment: BLI.

In series [5] the target is T5, MED25 ACID Arg466Glu (analyte) (human, UniProt Q71SY5 391-553, Arg466Glu).
T5 sequence (looked up): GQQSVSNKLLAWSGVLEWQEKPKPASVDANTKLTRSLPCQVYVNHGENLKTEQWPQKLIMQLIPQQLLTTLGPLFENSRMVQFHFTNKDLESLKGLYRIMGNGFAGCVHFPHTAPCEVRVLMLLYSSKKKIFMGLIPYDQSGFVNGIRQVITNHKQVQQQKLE
As to the kind of experiment: BLI.

The target in series [6] is T6, MED25 ACID Met523Glu (analyte) (human, UniProt Q71SY5 391-553, Met523Glu).
T6 sequence (looked up): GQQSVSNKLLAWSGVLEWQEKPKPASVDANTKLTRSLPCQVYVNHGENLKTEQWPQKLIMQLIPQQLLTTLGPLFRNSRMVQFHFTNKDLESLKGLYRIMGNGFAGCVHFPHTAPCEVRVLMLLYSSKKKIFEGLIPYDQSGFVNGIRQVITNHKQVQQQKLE
The series can be described thus: BLI.

Series [7] has as its target T7, MED25 ACID Ile521Glu (analyte) (human, UniProt Q71SY5 391-553, Ile521Glu).
T7 sequence (looked up): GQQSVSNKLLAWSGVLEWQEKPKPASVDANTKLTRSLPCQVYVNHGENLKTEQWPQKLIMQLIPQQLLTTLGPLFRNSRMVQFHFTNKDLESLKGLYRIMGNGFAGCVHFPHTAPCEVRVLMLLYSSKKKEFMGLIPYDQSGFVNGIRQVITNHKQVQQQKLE
The series can be described thus: BLI.

Series [8] has as its target T8, MED25 ACID Leu514Glu (analyte) (human, UniProt Q71SY5 391-553, Leu514Glu).
T8 sequence (looked up): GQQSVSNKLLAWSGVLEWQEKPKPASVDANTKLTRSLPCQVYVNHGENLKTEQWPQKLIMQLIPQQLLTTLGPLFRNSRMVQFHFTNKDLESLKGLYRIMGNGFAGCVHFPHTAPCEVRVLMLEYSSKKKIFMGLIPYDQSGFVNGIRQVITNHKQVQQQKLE
The series can be described thus: BLI.

Series [9] has as its target T9, MED25 ACID (residues 391–553), from pET28 (human, UniProt Q71SY5 391-553).
T9 sequence (looked up): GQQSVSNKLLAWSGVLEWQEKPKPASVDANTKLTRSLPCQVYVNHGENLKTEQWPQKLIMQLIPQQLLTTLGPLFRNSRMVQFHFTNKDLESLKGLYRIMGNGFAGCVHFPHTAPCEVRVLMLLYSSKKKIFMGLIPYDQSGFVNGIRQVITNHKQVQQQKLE
The series can be described thus: NMR titration.

A further series has as its target ETV4 Leu430Ala (UniProt P43268 1-484, L430A). As to the kind of experiment: EMSA. For orientation: A gel shift assay detects complexes by their altered migration in electrophoresis.
The next series has as its target ETV4 Phe428Ala/Phe432Ala (UniProt P43268 1-484, F428A;F432A). The series can be described thus: EMSA.
In a further series the target is ETV4 WT;MED25 ACID (human?;human, UniProt P43268;Q71SY5 1-484;391-553, |). The series can be described thus: EMSA.

Drawing on publication PMC5632138 (Journal of molecular biology, 2017), this text covers binding result and Kd for three molecules.

Broadly, the Kd is the constant that tells how readily two partners part at equilibrium.

ETV4 WT;MED25 ACID, sequence (P43268 whole entry, one chain of several): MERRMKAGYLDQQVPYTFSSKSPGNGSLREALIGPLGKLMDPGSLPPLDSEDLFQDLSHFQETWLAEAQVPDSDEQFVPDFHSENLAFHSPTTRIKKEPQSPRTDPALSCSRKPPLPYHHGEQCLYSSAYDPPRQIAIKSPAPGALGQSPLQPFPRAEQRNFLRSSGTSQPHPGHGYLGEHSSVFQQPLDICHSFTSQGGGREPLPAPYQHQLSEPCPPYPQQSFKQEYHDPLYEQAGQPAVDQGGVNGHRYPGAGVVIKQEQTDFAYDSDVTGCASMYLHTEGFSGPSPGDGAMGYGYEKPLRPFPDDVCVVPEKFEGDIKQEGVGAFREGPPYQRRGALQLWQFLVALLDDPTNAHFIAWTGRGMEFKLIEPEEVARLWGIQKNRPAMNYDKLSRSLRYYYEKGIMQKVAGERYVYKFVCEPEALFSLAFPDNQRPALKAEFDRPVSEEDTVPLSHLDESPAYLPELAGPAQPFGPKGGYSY
ETV4 Phe428Ala/Phe432Ala, sequence (P43268 whole entry F428A/F432A): as the sequence (P43268 whole entry, one chain of several) above, with F428A, F432A counted along it
ETV4 Leu430Ala, sequence (P43268 whole entry L430A): as the sequence (P43268 whole entry, one chain of several) above, with L430A counted along it

B1: ETV4^337–436 (DNA-binding domain), biotinylated ligand for biolayer interferometry (domain or fragment, UniProt P43268 337-436, looked up)
chain: RRGALQLWQFLVALLDDPTNAHFIAWTGRGMEFKLIEPEEVARLWGIQKNRPAMNYDKLSRSLRYYYEKGIMQKVAGERYVYKFVCEPEALFSLAFPDNQ
modifications: biotin (biotinylated; D-biotin added at the induction point)
For the molecule B1, the binding result in series [1], in series [2], in series [3], in series [4], in series [5] and in series [6] was “binds” throughout. Further, the binding result in [7] and in series [8] was “binds” in each case.

B2: ETV4^337–436 (DNA-binding domain), from pET28 (domain or fragment, UniProt P43268 337-436, looked up)
chain: RRGALQLWQFLVALLDDPTNAHFIAWTGRGMEFKLIEPEEVARLWGIQKNRPAMNYDKLSRSLRYYYEKGIMQKVAGERYVYKFVCEPEALFSLAFPDNQ
With B2, the binding result in series [9] is “binds”.

B3: 27-bp consensus ETS duplex (dsDNA)
DNA 1: TCGACGGCCAAGCCGGAAGTGAGTGCC
DNA 2: TCGAGGCACTCACTTCCGGCTTGGCCG
As to B3, the results for the dissociation constant Kd in the series with ETV4 Leu430Ala, with ETV4 Phe428Ala/Phe432Ala and with ETV4 WT;MED25 ACID were 1.9 ± 0.4 nM, 3.7 ± 0.8 nM and 2.1 ± 0.5 nM, respectively.
